From paper PMC9482650, “Quantitative fragmentomics allow affinity mapping of interactomes” (Nature Communications, 2022)

B1: SLC15A5, A6NIM6 (peptide)
chain: SSIDLWETAL
B2: HPV33-E6, P06427 (peptide)
chain: SRSRRRETAL
B3: NET1, Q7Z628 (peptide)
chain: SGGKRKETLV

biological target: CARD14, Q9BXL6; assay: holdup assay; set-up: key: below the threshold = too weak to quantify, mostly under pKd 3.1 to 4; details: plain residues with an end cap or a label only (N-terminal biotin on a linker: ttds)
Sequence (Q9BXL6 558-663): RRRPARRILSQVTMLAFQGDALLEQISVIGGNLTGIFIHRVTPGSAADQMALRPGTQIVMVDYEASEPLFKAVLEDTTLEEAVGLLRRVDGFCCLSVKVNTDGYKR

| Binder | pKd |
| --- | --- |
| B1 | below the threshold |
| B2 | below the threshold |

biological target: LIMK1, P53667; assay: holdup assay; set-up: key: below the threshold = too weak to quantify, mostly under pKd 3.1 to 4; details: plain residues with an end cap or a label only (N-terminal biotin on a linker: ttds)
Sequence (P53667 155-268): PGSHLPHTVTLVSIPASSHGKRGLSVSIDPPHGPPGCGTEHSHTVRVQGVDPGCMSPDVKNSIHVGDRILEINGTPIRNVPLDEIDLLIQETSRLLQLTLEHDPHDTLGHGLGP

| Binder | pKd |
| --- | --- |
| B1 | below the threshold |
| B2 | below the threshold |

biological target: LMO7, Q8WWI1; assay: holdup assay; set-up: key: below the threshold = too weak to quantify, mostly under pKd 3.1 to 4; details: plain residues with an end cap or a label only (N-terminal biotin on a linker: ttds)
Sequence (Q8WWI1 1037-1138): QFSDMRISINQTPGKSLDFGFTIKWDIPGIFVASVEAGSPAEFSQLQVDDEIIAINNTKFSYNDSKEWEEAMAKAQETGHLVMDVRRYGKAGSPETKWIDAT

| Binder | pKd |
| --- | --- |
| B1 | below the threshold |
| B2 | below the threshold |

biological target: T1, LNX2_4, Q8N448; assay: holdup assay; set-up: key: below the threshold = too weak to quantify, mostly under pKd 3.1 to 4; details: plain residues with an end cap or a label only (N-terminal biotin on a linker: ttds)
T1 sequence (Q8N448 595-690, limits assumed, looked up): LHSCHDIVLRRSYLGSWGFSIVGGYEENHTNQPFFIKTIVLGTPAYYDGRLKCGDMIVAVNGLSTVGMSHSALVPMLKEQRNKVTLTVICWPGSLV

| Binder | pKd |
| --- | --- |
| B1 | 5.03 |
| B2 | below the threshold |

biological target: MAGI1_5, Q96QZ7; assay: holdup assay; set-up: key: below the threshold = too weak to quantify, mostly under pKd 3.1 to 4; details: plain residues with an end cap or a label only (N-terminal biotin on a linker: ttds)
Sequence (Q96QZ7 986-1098): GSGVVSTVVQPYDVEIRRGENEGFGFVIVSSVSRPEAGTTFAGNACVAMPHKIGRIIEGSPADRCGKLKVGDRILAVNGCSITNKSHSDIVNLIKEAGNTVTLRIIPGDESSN

| Binder | pKd |
| --- | --- |
| B1 | 5.82 |
| B3 | 4.72 |
| B2 | below the threshold |

biological target: T2, MAGI2_1, Q86UL8; assay: holdup assay; set-up: key: below the threshold = too weak to quantify, mostly under pKd 3.1 to 4; details: plain residues with an end cap or a label only (N-terminal biotin on a linker: ttds)
T2 sequence (Q86UL8 12-111, limits assumed, looked up): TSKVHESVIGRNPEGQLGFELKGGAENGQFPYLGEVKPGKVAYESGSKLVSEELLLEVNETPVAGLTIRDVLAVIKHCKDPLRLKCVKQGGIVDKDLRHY

| Binder | pKd |
| --- | --- |
| B1 | below the threshold |
| B3 | below the threshold |
| B2 | below the threshold |

biological target: T3, MPDZ_3, O75970; assay: holdup assay; set-up: key: below the threshold = too weak to quantify, mostly under pKd 3.1 to 4; details: plain residues with an end cap or a label only (N-terminal biotin on a linker: ttds)
T3 sequence (O75970 372-473, limits assumed, looked up): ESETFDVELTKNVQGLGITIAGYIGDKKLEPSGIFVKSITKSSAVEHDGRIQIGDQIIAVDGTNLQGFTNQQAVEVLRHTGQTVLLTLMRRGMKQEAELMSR

| Binder | pKd |
| --- | --- |
| B1 | 4.85 |
| B3 | below the threshold |
| B2 | below the threshold |

biological target: T4, MPDZ_6, O75970; assay: holdup assay; set-up: key: below the threshold = too weak to quantify, mostly under pKd 3.1 to 4; details: plain residues with an end cap or a label only (N-terminal biotin on a linker: ttds)
T4 sequence (O75970 1003-1099, limits assumed, looked up): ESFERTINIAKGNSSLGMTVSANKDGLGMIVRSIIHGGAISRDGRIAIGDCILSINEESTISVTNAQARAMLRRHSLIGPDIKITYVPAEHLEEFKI

| Binder | pKd |
| --- | --- |
| B1 | below the threshold |
| B3 | below the threshold |
| B2 | below the threshold |

biological target: NHERF2_1, Q15599; assay: holdup assay; set-up: key: below the threshold = too weak to quantify, mostly under pKd 3.1 to 4; details: plain residues with an end cap or a label only (N-terminal biotin on a linker: ttds)
Sequence (Q15599 9-91): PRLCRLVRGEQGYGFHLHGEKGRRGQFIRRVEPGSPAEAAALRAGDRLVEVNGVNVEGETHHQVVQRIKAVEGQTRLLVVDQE

| Binder | pKd |
| --- | --- |
| B1 | 4.68 |
| B3 | below the threshold |
| B2 | below the threshold |

biological target: O60759; assay: holdup assay; set-up: key: below the threshold = too weak to quantify, mostly under pKd 3.1 to 4; details: plain residues with an end cap or a label only (N-terminal biotin on a linker: ttds)

| Binder | pKd |
| --- | --- |
| B1 | below the threshold |

biological target: PARD3B_2, Q8TEW8; assay: holdup assay; set-up: key: below the threshold = too weak to quantify, mostly under pKd 3.1 to 4; details: plain residues with an end cap or a label only (N-terminal biotin on a linker: ttds)
Sequence (Q8TEW8 376-471): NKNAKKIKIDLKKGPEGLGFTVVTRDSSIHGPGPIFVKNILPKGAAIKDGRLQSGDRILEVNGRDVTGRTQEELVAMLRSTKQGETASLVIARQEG

| Binder | pKd |
| --- | --- |
| B1 | below the threshold |
| B3 | below the threshold |
| B2 | below the threshold |

biological target: T5, PDZD2_3, O15018; assay: holdup assay; set-up: key: below the threshold = too weak to quantify, mostly under pKd 3.1 to 4; details: plain residues with an end cap or a label only (N-terminal biotin on a linker: ttds)
T5 sequence (O15018 581-682, limits assumed, looked up): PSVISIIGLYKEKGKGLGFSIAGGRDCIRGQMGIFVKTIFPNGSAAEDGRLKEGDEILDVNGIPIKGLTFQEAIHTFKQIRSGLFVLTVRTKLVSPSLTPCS

| Binder | pKd |
| --- | --- |
| B1 | 5.1 |
| B3 | below the threshold |
| B2 | below the threshold |

biological target: T6, PDZD2_5, O15018; assay: holdup assay; set-up: key: below the threshold = too weak to quantify, mostly under pKd 3.1 to 4; details: plain residues with an end cap or a label only (N-terminal biotin on a linker: ttds)
T6 sequence (O15018 2617-2716, limits assumed, looked up): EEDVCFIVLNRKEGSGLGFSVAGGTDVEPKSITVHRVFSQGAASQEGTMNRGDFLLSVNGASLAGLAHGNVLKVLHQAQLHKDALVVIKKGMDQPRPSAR

| Binder | pKd |
| --- | --- |
| B1 | below the threshold |
| B3 | below the threshold |
| B2 | below the threshold |

biological target: T7, PDZD2_6, O15018; assay: holdup assay; set-up: key: below the threshold = too weak to quantify, mostly under pKd 3.1 to 4; details: plain residues with an end cap or a label only (N-terminal biotin on a linker: ttds)
T7 sequence (O15018 2745-2839, limits assumed, looked up): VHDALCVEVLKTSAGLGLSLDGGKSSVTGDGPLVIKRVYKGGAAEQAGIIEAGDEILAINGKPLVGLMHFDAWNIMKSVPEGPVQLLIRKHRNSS

| Binder | pKd |
| --- | --- |
| B1 | below the threshold |
| B3 | below the threshold |
| B2 | below the threshold |

biological target: T8, PDZD7_2, Q9H5P4; assay: holdup assay; set-up: key: below the threshold = too weak to quantify, mostly under pKd 3.1 to 4; details: plain residues with an end cap or a label only (N-terminal biotin on a linker: ttds)
T8 sequence (Q9H5P4 205-303, limits assumed, looked up): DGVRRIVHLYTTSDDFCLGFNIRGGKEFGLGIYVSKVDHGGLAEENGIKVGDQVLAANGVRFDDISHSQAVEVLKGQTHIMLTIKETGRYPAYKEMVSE

| Binder | pKd |
| --- | --- |
| B1 | below the threshold |
| B3 | below the threshold |
| B2 | 4.42 |

biological target: PDZD9, Q8IXQ8; assay: holdup assay; set-up: key: below the threshold = too weak to quantify, mostly under pKd 3.1 to 4; details: plain residues with an end cap or a label only (N-terminal biotin on a linker: ttds)
Sequence (Q8IXQ8 23-120): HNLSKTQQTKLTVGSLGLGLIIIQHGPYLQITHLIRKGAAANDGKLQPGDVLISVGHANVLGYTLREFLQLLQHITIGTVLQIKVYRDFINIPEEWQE

| Binder | pKd |
| --- | --- |
| B1 | below the threshold |
| B3 | below the threshold |
| B2 | below the threshold |

biological target: PDZRN4_2, Q6ZMN7; assay: holdup assay; set-up: key: below the threshold = too weak to quantify, mostly under pKd 3.1 to 4; details: plain residues with an end cap or a label only (N-terminal biotin on a linker: ttds)
Sequence (Q6ZMN7 389-498): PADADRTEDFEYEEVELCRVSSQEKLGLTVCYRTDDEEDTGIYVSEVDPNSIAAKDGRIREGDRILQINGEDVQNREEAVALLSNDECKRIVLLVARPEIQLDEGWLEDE

| Binder | pKd |
| --- | --- |
| B1 | below the threshold |
| B3 | below the threshold |
| B2 | below the threshold |

biological target: Q8TEW0; assay: holdup assay; set-up: key: below the threshold = too weak to quantify, mostly under pKd 3.1 to 4; details: plain residues with an end cap or a label only (N-terminal biotin on a linker: ttds)

| Binder | pKd |
| --- | --- |
| B1 | below the threshold |

biological target: Q96HC4; assay: holdup assay; set-up: key: below the threshold = too weak to quantify, mostly under pKd 3.1 to 4; details: plain residues with an end cap or a label only (N-terminal biotin on a linker: ttds)

| Binder | pKd |
| --- | --- |
| B1 | below the threshold |

biological target: SCRIB_4, Q14160; assay: holdup assay; set-up: key: below the threshold = too weak to quantify, mostly under pKd 3.1 to 4; details: plain residues with an end cap or a label only (N-terminal biotin on a linker: ttds)
Sequence (Q14160 1095-1204): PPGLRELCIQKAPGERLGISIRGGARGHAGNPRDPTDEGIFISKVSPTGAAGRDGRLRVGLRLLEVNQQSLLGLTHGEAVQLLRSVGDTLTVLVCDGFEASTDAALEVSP

| Binder | pKd |
| --- | --- |
| B1 | 4.97 |
| B3 | below the threshold |
| B2 | 4.24 |

biological target: T9, SHANK2, Q9UPX8; assay: holdup assay; set-up: key: below the threshold = too weak to quantify, mostly under pKd 3.1 to 4; details: plain residues with an end cap or a label only (N-terminal biotin on a linker: ttds)
T9 sequence (Q9UPX8 621-730, limits assumed, looked up): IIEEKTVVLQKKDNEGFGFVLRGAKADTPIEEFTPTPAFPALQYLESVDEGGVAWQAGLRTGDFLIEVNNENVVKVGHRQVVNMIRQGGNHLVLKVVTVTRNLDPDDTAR

| Binder | pKd |
| --- | --- |
| B1 | 5.87 |
| B2 | below the threshold |

biological target: T10, SHROOM2, Q13796; assay: holdup assay; set-up: key: below the threshold = too weak to quantify, mostly under pKd 3.1 to 4; details: plain residues with an end cap or a label only (N-terminal biotin on a linker: ttds)
T10 sequence (Q13796 21-118, limits assumed, looked up): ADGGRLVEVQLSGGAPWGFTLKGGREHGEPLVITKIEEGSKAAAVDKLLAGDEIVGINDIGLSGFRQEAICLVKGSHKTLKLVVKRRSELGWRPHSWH

| Binder | pKd |
| --- | --- |
| B1 | 5.76 |
| B3 | below the threshold |
| B2 | below the threshold |

biological target: T11, SYNPO2L, Q9H987; assay: holdup assay; set-up: key: below the threshold = too weak to quantify, mostly under pKd 3.1 to 4; details: plain residues with an end cap or a label only (N-terminal biotin on a linker: ttds)
T11 sequence (Q9H987 1-98, limits assumed, looked up): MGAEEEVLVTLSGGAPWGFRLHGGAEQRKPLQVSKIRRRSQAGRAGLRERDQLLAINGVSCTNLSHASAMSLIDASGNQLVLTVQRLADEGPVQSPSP

| Binder | pKd |
| --- | --- |
| B1 | below the threshold |
| B3 | below the threshold |
| B2 | below the threshold |

biological target: T12, TJP3_2, O95049; assay: holdup assay; set-up: key: below the threshold = too weak to quantify, mostly under pKd 3.1 to 4; details: plain residues with an end cap or a label only (N-terminal biotin on a linker: ttds)
T12 sequence (O95049 190-282, limits assumed, looked up): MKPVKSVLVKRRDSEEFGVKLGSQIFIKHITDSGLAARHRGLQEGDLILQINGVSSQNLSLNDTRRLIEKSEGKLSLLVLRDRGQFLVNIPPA

| Binder | pKd |
| --- | --- |
| B1 | below the threshold |
| B2 | below the threshold |

biological target: T13, USH1C_3, Q9Y6N9; assay: holdup assay; set-up: key: below the threshold = too weak to quantify, mostly under pKd 3.1 to 4; details: plain residues with an end cap or a label only (N-terminal biotin on a linker: ttds)
T13 sequence (Q9Y6N9 447-547, limits assumed, looked up): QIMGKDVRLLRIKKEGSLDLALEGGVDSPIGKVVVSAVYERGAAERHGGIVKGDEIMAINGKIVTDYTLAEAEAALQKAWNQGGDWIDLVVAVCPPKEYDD

| Binder | pKd |
| --- | --- |
| B1 | below the threshold |
| B3 | below the threshold |
| B2 | below the threshold |
